Measured values taken from patent US20200199213A1 (Eli Lilly, published 2020).
Substitutions are numbered along the chain they refer to. Names may count otherwise.

B1: human ANGPTL3 (other)
chain: SRIDQDNSSFDSLSPEPKSRFAMLDDVKILANGLLQLGHGLKDFVHKTKGQINDIFQKLNIFDQSFYDLSLQTSEIKEEEKELRRTTYKLQVKNEEVKNMSLELNSKLESLLEEKILLQQKVKYLEEQLTNLIQNQPETPEHPEVTSLKTFVEKQDNSIKDLLQTVEDQYKQLNQQHSQIKEIENQLRRTSIQEPTEISLSSKPRAPRTTPFLQLNEIRNVKHDGIPAECTTIYNRGEHTSGMYAIRPSNSQVFHVYCDVISGSPWTLIQHRIDGSQNFNETWENYKYGFGRLDGEFWLGLEKIYSIVKQSNYVLRIELEDWKDNKHYIEYSFYLGNHETNYTLHLVAITGNVPNAIPENKDLVFSTWDHKAKGHFNCPEGYSGGWWWHDECGENNLNGKYNKPRAKSKPERRRGLSWKSQNGRLYSIKSTKMLIHPTDSESFE
B2: human ANGPTL3/8 complex (other)
chain 1: SRIDQDNSSFDSLSPEPKSRFAMLDDVKILANGLLQLGHGLKDFVHKTKGQINDIFQKLNIFDQSFYDLSLQTSEIKEEEKELRRTTYKLQVKNEEVKNMSLELNSKLESLLEEKILLQQKVKYLEEQLTNLIQNQPETPEHPEVTSLKTFVEKQDNSIKDLLQTVEDQYKQLNQQHSQIKEIENQLRRTSIQEPTEISLSSKPRAPRTTPFLQLNEIRNVKHDGIPAECTTIYNRGEHTSGMYAIRPSNSQVFHVYCDVISGSPWTLIQHRIDGSQNFNETWENYKYGFGRLDGEFWLGLEKIYSIVKQSNYVLRIELEDWKDNKHYIEYSFYLGNHETNYTLHLVAITGNVPNAIPENKDLVFSTWDHKAKGHFNCPEGYSGGWWWHDECGENNLNGKYNKPRAKSKPERRRGLSWKSQNGRLYSIKSTKMLIHPTDSESFEAAADYKDDDDK
chain 2: APMGGPELAQHEELTLLFHGTLQLGQALNGVYRTTEGRLTKARNSLGLYGRTIELLGQEVSRGRDAAQELRASLLETQMEEDILQLQAEATAEVLGEVAQAQKVLRDSVQRLEVQLRSAWLGPAYREFEVLKAHADKQSHILWALTGHVQRQRREMVAQQHRLRQIQERLHTAALPA
B3: Ab with LC variant having a D33T mutation (SEQ ID NO:23) and a HC of SEQ ID NO:6 (antibody, human IgG4 S228P, kappa, F234A L235A, V domains shown)
VH: QVTLKESGPTLVKPTQTLTLTCTFSGFSLSISGVGVGWIRQPPGKALEWLALIYRNDDKRYSPSLKSRLTITKDTSKNQVVLTLTNMDPVDTATYYCARTYSSGWYGNWFDPWGQGTLVTVSS
VL: DIVMTQTPLSLPVTPGEPASISCRSSQSLLDSTDGNTYLDWYLQKPGQSPQLLIYMLSYRASGVPDRFSGSGSGTDFTLKISRVEAEDVGIYYCMQRIEFPLTFGGGTKVEIKR
notes: also called D33T Ab
B4: Ab with LC variant having a M56T mutation (SEQ ID NO:24) and a HC of SEQ ID NO:6 (antibody, human IgG4 S228P, kappa, F234A L235A, V domains shown)
VH: B3 VH
VL: B3 VL with T33D, M56T

Columns and labels:
[1] = molecular target: T1, LPL (lipoprotein lipase) on LPL-expressing cells of Example 1; assay: cell-based or functional assay
T1 sequence (P06858 28-475, species assumed, looked up): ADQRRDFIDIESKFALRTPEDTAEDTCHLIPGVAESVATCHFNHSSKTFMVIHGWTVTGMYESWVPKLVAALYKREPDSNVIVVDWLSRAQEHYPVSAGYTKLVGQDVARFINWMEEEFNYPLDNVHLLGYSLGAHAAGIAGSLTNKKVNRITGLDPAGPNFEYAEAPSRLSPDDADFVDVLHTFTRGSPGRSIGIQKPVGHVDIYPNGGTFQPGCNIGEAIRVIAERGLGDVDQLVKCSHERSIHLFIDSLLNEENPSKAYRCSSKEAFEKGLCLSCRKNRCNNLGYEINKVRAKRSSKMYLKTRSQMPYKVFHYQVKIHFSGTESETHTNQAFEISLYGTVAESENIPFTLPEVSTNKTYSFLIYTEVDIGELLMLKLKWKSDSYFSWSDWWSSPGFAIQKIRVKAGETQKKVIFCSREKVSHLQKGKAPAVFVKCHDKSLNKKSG

human LPL = molecular target: T2, human LPL (human, UniProt P06858 28-475); assay: cell-based or functional assay
T2 sequence (looked up): T1 sequence (P06858 28-475, species assumed, looked up)

human ANGPTL8 [2] = molecular target: T3, human ANGPTL8 (human, UniProt Q6UXH0 22-198); assay: single point ELISA
T3 construct: Biotinylated in the ELISA assays; also called hANGPTL8; free ANGPTL8
T3 sequence: B2 chain 2
Description: (§1) Single Point ELISA (SPE) Assay: Ab binding selectivity to either the ANGPTL3/8 complex, free ANGPTL3 or free ANGPTL8 is initially verified using standard ELISA assays in a single point format. […] IgG secreted into supernatants after expression in CHO cells are then captured to the assay plate. Biotinylated antigen is added at a concentration of 25 nM to allow for Ab/antigen binding. Ab/antigen complexes are detected after adding alkaline phosphatase-conjugated neutravidin and alkaline phosphatase substrate, and subsequent measurement of the optical density at 560 nm. Positive binding is determined by a signal greater than 3 fold over the non-binding background signal.

human ANGPTL3 [3] = molecular target: B1; assay: single point ELISA
Description: as §1

mouse ANGPTL3/8 complex = molecular target: T4, mouse ANGPTL3/8 complex (mouse, UniProt Q9R182 17-455; Q8R1L8 16-198, limits assumed); assay: cell-based or functional assay
T4 sequence (looked up) 1: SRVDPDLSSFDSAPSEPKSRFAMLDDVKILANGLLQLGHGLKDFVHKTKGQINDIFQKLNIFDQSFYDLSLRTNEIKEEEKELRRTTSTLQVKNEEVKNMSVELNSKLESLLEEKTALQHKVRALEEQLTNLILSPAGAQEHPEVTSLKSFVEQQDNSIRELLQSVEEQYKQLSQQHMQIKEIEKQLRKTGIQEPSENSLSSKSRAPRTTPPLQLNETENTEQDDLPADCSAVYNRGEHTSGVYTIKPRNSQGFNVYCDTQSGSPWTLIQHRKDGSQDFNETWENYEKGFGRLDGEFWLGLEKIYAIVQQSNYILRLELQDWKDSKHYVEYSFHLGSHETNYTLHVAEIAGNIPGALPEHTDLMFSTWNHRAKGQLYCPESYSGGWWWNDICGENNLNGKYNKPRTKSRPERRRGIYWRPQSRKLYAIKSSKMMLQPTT
T4 sequence (looked up) 2: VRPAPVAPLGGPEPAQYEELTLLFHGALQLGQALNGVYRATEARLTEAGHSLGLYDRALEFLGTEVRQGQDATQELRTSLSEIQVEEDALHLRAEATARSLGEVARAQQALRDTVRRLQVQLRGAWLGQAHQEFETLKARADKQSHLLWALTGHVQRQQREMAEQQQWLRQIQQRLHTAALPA

human ANGPTL3/8 complex [4] = molecular target: B2; assay: cell-based or functional assay
human ANGPTL3/8 complex [5] = molecular target: B2; assay: single point ELISA; IgG captured by anti-human Fc; biotinylated antigen at 25 nM
Description: as §1

human ANGPTL8 [6] = molecular target: T3, human ANGPTL8; assay: as above
Description: as §1

human ANGPTL3 [7] = molecular target: B1; assay: as above
Description: as §1

B1
EC50 in the LPL assay (inhibition of LPL) [1]: 21.5 nM

B2
EC50 in the LPL assay (inhibition of LPL) [1]: 0.54 nM
IC80 concentration (inhibition of LPL activity) (human LPL): 0.42 nM

B3
binding result (human ANGPTL8 [2]): no binding
binding result (human ANGPTL3 [3]): no binding
% Max Derepression LPL (mouse ANGPTL3/8 complex): 114%
Ab EC50 (nM), derepression of LPL (mouse ANGPTL3/8 complex): 4.55 nM
% Max Derepression LPL (human ANGPTL3/8 complex [4]): 105%
Ab EC50 (nM), derepression of LPL (human ANGPTL3/8 complex [4]): 1.56 nM
OD at 560 nm (human ANGPTL3/8 complex [5]): 0.661 OD 560 nm
OD at 560 nm (human ANGPTL8 [6]): 0.07 OD 560 nm
OD at 560 nm (human ANGPTL3 [7]): 0.06 OD 560 nm

B4
binding result (human ANGPTL8 [2]): no binding
binding result (human ANGPTL3 [3]): no binding
OD at 560 nm (human ANGPTL3/8 complex [5]): 0.775 OD 560 nm
OD at 560 nm (human ANGPTL8 [6]): 0.085 OD 560 nm
OD at 560 nm (human ANGPTL3 [7]): 0.06 OD 560 nm
